Results on two substances are retold here after patent US20260174822A1.

This test addresses GLP-1R on GeneBLAzer GLP-1R-CRE-bla CHO-K1 cells. Briefly: cell-based or functional assay.

Take GLP-1-His protein (peptide): the EC50 of GLP-1R activation (460/530 ratio, GeneBLAzer GLP-1R-CRE-bla CHO-K1 reporter cells) stood at 192 nM.

Take GLP-1-RFRS-His protein (peptide): the EC50 of GLP-1R activation (460/530 ratio, GeneBLAzer GLP-1R-CRE-bla CHO-K1 reporter cells) amounted to 35.9 nM.
